Where two headings read alike, the source gives them in different places.
Tests used:
gastric cancer NCI-N87 = assay: In vivo anti-tumor effect, gastric cancer NCI-N87 tumor model; design: species or system mouse; settings: NCI-N87 subcutaneous model, FIG. 10, FIG. 11
Procedure: (§1) Tumor cells (ovarian cancer SKOV-3, gastric cancer NCI-N87, and breast cancer JIMT-1) were cultured in a medium and maintained in a 37° C. saturated humidity incubator containing 5% CO2, respectively.
(§2) Tumor cells in a logarithmic growth phase were collected and re-suspended in a basic medium, and the concentration of cells was adjusted to 4×10^7/mL. Under sterile conditions, 0.1 mL of cell suspension was inoculated subcutaneously into the right armpit of a mouse at a concentration of 4×10^6 Cells/0.1 mL/mouse.
(§3) When the tumor volume reached around 200 mm^3, animals were randomly grouped according to the tumor volume, where the difference in tumor volume between the groups was less than 10% of the mean. The grouping day was recorded as Day 0, and administration started according to the body weight of the animals. In the administration period, if the body weight of individual animals decreased by more than 15% compared to that on Day 0 (BWL≥15%), the administration was stopped until the body weight of the animals recovered (BWL<15%), and then the administration recovered.
(§4) During the experiment, the body weight of the animals and the tumor volume were measured 2 times a week, and clinical symptoms of the animals were observed and recorded every day.

[1] = Polymer (high molecular component) content of antibody-drug conjugates by SE-HPLC; assay type: physicochemical; settings: ADC with Her2 antibody
Outline: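 SE-HPLC on 7.8×300 mm SEC column with 50 mM phosphate, 300 mM NaCl (pH 6.8) mobile phase at 0.5 mL/min; high-molecular-weight content determined by area normalization.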

breast cancer JIMT-1 = assay: In vivo anti-tumor effect, breast cancer JIMT-1 tumor model; design: species or system mouse; settings: JIMT-1 subcutaneous model, FIG. 10
Procedure: as §1, §2, §3, §4

[2] = assay type: physicochemical; settings: ADC with Her2 antibody, RP-HPLC-MS
Outline: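 ADC at 1 mg/ml reduced with 50 mmol/L DTT in Tris pH 8.0 for 30 min at 37 °C, then light and heavy chains separated by RP-HPLC on a PLRP-S column at 70 °C. Deconvoluted masses assigned drug load per peak; weighted average DAR calculated from UV peak area percentages.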

[3] = Naked antibody content of antibody-drug conjugates by hydrophobic interaction chromatography (HIC); assay type: physicochemical; settings: ADC with Her2 antibody
[4] = Stability (placement) test of ADCs at 40° C. in dark for 14 days, DAR and polymer content; assay type: physicochemical
Outline: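 ADCs stored at 40° C in dark, sampled on days 0, 7 and 14. Polymer content by SE-HPLC (50 mM phosphate, 300 mM NaCl, pH 6.8), area normalization. DAR by RP-HPLC-MS after reduction (1 mg/ml in 50 mmol/L Tris pH 8.0, 50 mmol/L DTT, 37° C, 30 min): deconvoluted chain masses assign drug load, weighted average from UV peak areas.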

Compound | in vivo anti-tumor effect on gastric cancer (gastric cancer NCI-N87) | Polymer content (%) [1] [%] | in vivo anti-tumor effect on breast cancer (breast cancer JIMT-1) | DAR [2] | Naked antibody content (%) [3] [%] | DAR ([4]; Day 0, 40° C. in dark) | Polymer content (%) ([4]; Day 0, 40° C. in dark) | DAR ([4]; Day 7, 40° C. in dark) | Polymer content (%) ([4]; Day 7, 40° C. in dark) | DAR ([4]; Day 14, 40° C. in dark) | Polymer content (%) ([4]; Day 14, 40° C. in dark)
C=C1C[C@@H]2CC[C@@]34C[C@H]5OC6C(O[C@H]7CC[C@H](CC(=O)C[C@@H]8[C@@H](OC)[C@@H](C[C@H](O)CNC(=O)CNC(=O)[C@H](Cc9ccccc9)NC(=O)CNC(=O)CNC(=O)CCCCCN9C(=O)C=CC9=O)O[C@H]8C[C@H]8O[C@@H](CC[C@@H]1O2)C[C@@H](C)C8=C)O[C@@H]7[C@@H]6O3)[C@H]5O4 [Comparative Example 4, reference compound] | poor anti-tumor effects | 10.73 | poor anti-tumor effects | 3.01 | 8.01 | – | – | – | – | – | –
C=C1C[C@@H]2CC[C@@]34C[C@H]5OC6C(O[C@H]7CC[C@H](CC(=O)C[C@@H]8[C@@H](OC)[C@@H](C[C@H](O)CNC(=O)CNC(=O)[C@H](Cc9ccccc9)NC(=O)CNC(=O)CN9CCOCCOCCN(C(=O)CCCCCN%10C(=O)C=CC%10=O)CCOCCOCC9)O[C@H]8C[C@H]8O[C@@H](CC[C@@H]1O2)C[C@@H](C)C8=C)O[C@@H]7[C@@H]6O3)[C@H]5O4 [Example 40] | significantly better | 1.29 | – | 3.78 | 4.27 | 3.78 | 1.29 | 3.75 | 1.31 | 3.74 | 1.41

Reference: patent US20240293570A1 (priority 2021, published 2024)
